Results on three molecules are retold here after paper PMC2844702 (Chemistry & biology, 2009).

For assay [1], the target named is TrkB. The class given is binding.
In assay [2] the target is TrkB (UniProt Q16620). As to conditions: cited from earlier work.
The target of assay [3] is TrkA 97-120 (UniProt P04629). The settings on record: cited from earlier work.
Assay [4] deals with TrkA (UniProt P04629). The settings on record: cited from earlier work.

UniProt Q16620, sequence (Q16620 32-430): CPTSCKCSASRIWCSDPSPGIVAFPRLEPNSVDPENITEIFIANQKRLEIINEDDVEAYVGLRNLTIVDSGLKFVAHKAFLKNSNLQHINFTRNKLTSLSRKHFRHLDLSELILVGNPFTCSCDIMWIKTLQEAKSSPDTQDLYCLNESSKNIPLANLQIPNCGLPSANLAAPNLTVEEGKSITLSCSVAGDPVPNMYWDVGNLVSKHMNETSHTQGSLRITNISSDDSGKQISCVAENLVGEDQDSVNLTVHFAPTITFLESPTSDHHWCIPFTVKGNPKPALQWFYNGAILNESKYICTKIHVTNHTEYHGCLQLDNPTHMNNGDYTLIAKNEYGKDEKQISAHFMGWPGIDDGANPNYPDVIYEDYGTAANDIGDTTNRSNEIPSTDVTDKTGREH

Turning to `CN(C)CCC=C1c2ccccc2CCc2ccccc21` [amitriptyline], in assay [1], the Kd (usually a measure of binding affinity in units of concentration) was roughly 14000 nM.
For BDNF (from UniProt P23560), the Kd in assay [2] is 1 nM.
As to NGF (from UniProt P01139), the Kd was 1.3 nM in assay [3] and 1 nM in assay [4].
